According to US20260242735A1 (UNIVERSIT T BASEL, published 2026):
One block for each binder: values may come before it.

Experiments:
[1] = molecular target: human CD33 D18A (human, UniProt P20138 19-364); assay: flow cytometry, alanine scan
[2] = molecular target: human CD33 F43A (human, UniProt P20138 18-364); assay: flow cytometry, alanine scan
[3] = molecular target: human CD33 C36A (human, UniProt P20138 18-364); assay: flow cytometry, alanine scan
[4] = molecular target: human CD33 V29A (human, UniProt P20138 18-364); assay: flow cytometry, alanine scan
[5] = molecular target: human CD33 T42A (human, UniProt P20138 18-364); assay: flow cytometry, alanine scan
[6] = molecular target: human CD33 G34A (human, UniProt P20138 18-364); assay: flow cytometry, alanine scan
[7] = molecular target: human CD33 V37A (human, UniProt P20138 18-364); assay: flow cytometry, alanine scan
[8] = molecular target: human CD33 W22A (human, UniProt P20138 18-364); assay: flow cytometry, alanine scan
[9] = molecular target: human CD33 P19A (human, UniProt P20138 18-364); assay: flow cytometry, alanine scan
[10] = molecular target: human CD33 C41A (human, UniProt P20138 18-364); assay: flow cytometry, alanine scan
[11] = molecular target: human CD33 V39A (human, UniProt P20138 18-364); assay: flow cytometry, alanine scan
[12] = molecular target: human CD33 H45A (human, UniProt P20138 18-364); assay: flow cytometry, alanine scan
[13] = molecular target: human CD33 E27A (human, UniProt P20138 18-364); assay: flow cytometry, alanine scan
[14] = molecular target: human CD33 L35A (human, UniProt P20138 18-364); assay: flow cytometry, alanine scan
[15] = molecular target: human CD33 T30A (human, UniProt P20138 18-364); assay: flow cytometry, alanine scan
[16] = molecular target: human CD33 S28A (human, UniProt P20138 18-364); assay: flow cytometry, alanine scan
[17] = molecular target: human CD33 L23A (human, UniProt P20138 18-364); assay: flow cytometry, alanine scan
[18] = molecular target: human CD33 P40A (human, UniProt P20138 18-364); assay: flow cytometry, alanine scan
[19] = molecular target: human CD33 Q26A (human, UniProt P20138 18-364); assay: flow cytometry, alanine scan
[20] = molecular target: human CD33 L38A (human, UniProt P20138 18-364); assay: flow cytometry, alanine scan
[21] = molecular target: human CD33 Q32A (human, UniProt P20138 18-364); assay: flow cytometry, alanine scan
[22] = molecular target: human CD33 F44A (human, UniProt P20138 18-364); assay: flow cytometry, alanine scan
[23] = molecular target: human CD33 V25A (human, UniProt P20138 18-364); assay: flow cytometry, alanine scan
[24] = molecular target: human CD33 E33A (human, UniProt P20138 18-364); assay: flow cytometry, alanine scan
[25] = molecular target: human CD33 V31A (human, UniProt P20138 18-364); assay: flow cytometry, alanine scan
[26] = molecular target: human CD33 N20A (human, UniProt P20138 18-364); assay: flow cytometry, alanine scan
[27] = molecular target: human CD33 Q24A (human, UniProt P20138 18-364); assay: flow cytometry, alanine scan
[28] = molecular target: human CD33 F21A (human, UniProt P20138 18-364); assay: flow cytometry, alanine scan
[29] = molecular target: T1, human wild-type CD33 (human, UniProt P20138 18-364); assay: flow cytometry, IgG at 0.25 ug/ml on HEK293-T cells expressing CD33 against vector alone
T1 construct: also called SIGLEC3; P67
Method: (§1) Binding of the antibodies to the transfected cells and the optimal assay conditions were evaluated in 384-well format. Detection of cellular expression was measured via high-throughput flow cytometry. Serial dilutions of each antibody were tested for immunoreactivity against cells expressing CD33 or vector alone. The optimal screening concentration for each antibody was determined based on the raw signal values and signal-to-background calculations. Each point represents the mean of four replicates.

[30] = molecular target: T1, human wild-type CD33; assay: flow cytometry, IgG at 0.50 ug/ml on HEK293-T cells expressing CD33 against vector alone
Method: as §1

[31] = molecular target: T1, human wild-type CD33; assay: flow cytometry, Fab at 0.25 ug/ml on HEK293-T cells expressing CD33 against vector alone
Method: (§2) Serial dilutions of each Fab were tested for immunoreactivity against cells expressing wild-type CD33 or vector alone. The optimal screening concentration for the Fabs was determined based on the raw signal values and signal-to-background calculations. Each point represents the mean of four replicates.

[32] = molecular target: T1, human wild-type CD33; assay: as above; remark: listed apart in the source
Method: as §2

T1 sequence (P20138 18-364 limits assumed): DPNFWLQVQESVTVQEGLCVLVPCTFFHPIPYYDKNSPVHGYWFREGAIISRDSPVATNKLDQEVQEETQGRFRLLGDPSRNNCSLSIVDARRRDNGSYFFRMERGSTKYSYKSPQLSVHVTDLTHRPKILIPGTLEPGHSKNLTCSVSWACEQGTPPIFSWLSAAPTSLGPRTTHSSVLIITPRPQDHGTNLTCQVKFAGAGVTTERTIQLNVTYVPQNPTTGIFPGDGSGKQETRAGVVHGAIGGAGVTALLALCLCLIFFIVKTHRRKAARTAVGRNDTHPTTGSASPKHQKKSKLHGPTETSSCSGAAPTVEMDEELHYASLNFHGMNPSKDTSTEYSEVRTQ
human CD33 S28A, sequence (P20138 18-364 S28A limits assumed): as the sequence (P20138 18-364 limits assumed) above, with S11A counted along it
human CD33 D18A, sequence (P20138 18-364 D18A limits assumed): as the sequence (P20138 18-364 limits assumed) above, with D1A counted along it
human CD33 V37A, sequence (P20138 18-364 V37A limits assumed): as the sequence (P20138 18-364 limits assumed) above, with V20A counted along it
human CD33 F21A, sequence (P20138 18-364 F21A limits assumed): as the sequence (P20138 18-364 limits assumed) above, with F4A counted along it
human CD33 C41A, sequence (P20138 18-364 C41A limits assumed): as the sequence (P20138 18-364 limits assumed) above, with C24A counted along it
human CD33 L35A, sequence (P20138 18-364 L35A limits assumed): as the sequence (P20138 18-364 limits assumed) above, with L18A counted along it
human CD33 T30A, sequence (P20138 18-364 T30A limits assumed): as the sequence (P20138 18-364 limits assumed) above, with T13A counted along it
human CD33 C36A, sequence (P20138 18-364 C36A limits assumed): as the sequence (P20138 18-364 limits assumed) above, with C19A counted along it
human CD33 F44A, sequence (P20138 18-364 F44A limits assumed): as the sequence (P20138 18-364 limits assumed) above, with F27A counted along it
human CD33 F43A, sequence (P20138 18-364 F43A limits assumed): as the sequence (P20138 18-364 limits assumed) above, with F26A counted along it
human CD33 V25A, sequence (P20138 18-364 V25A limits assumed): as the sequence (P20138 18-364 limits assumed) above, with V8A counted along it
human CD33 T42A, sequence (P20138 18-364 T42A limits assumed): as the sequence (P20138 18-364 limits assumed) above, with T25A counted along it
human CD33 Q24A, sequence (P20138 18-364 Q24A limits assumed): as the sequence (P20138 18-364 limits assumed) above, with Q7A counted along it
human CD33 G34A, sequence (P20138 18-364 G34A limits assumed): as the sequence (P20138 18-364 limits assumed) above, with G17A counted along it
human CD33 P19A, sequence (P20138 18-364 P19A limits assumed): as the sequence (P20138 18-364 limits assumed) above, with P2A counted along it
human CD33 L38A, sequence (P20138 18-364 L38A limits assumed): as the sequence (P20138 18-364 limits assumed) above, with L21A counted along it
human CD33 Q26A, sequence (P20138 18-364 Q26A limits assumed): as the sequence (P20138 18-364 limits assumed) above, with Q9A counted along it
human CD33 V29A, sequence (P20138 18-364 V29A limits assumed): as the sequence (P20138 18-364 limits assumed) above, with V12A counted along it
human CD33 N20A, sequence (P20138 18-364 N20A limits assumed): as the sequence (P20138 18-364 limits assumed) above, with N3A counted along it
human CD33 H45A, sequence (P20138 18-364 H45A limits assumed): as the sequence (P20138 18-364 limits assumed) above, with H28A counted along it
human CD33 E27A, sequence (P20138 18-364 E27A limits assumed): as the sequence (P20138 18-364 limits assumed) above, with E10A counted along it
human CD33 P40A, sequence (P20138 18-364 P40A limits assumed): as the sequence (P20138 18-364 limits assumed) above, with P23A counted along it
human CD33 V39A, sequence (P20138 18-364 V39A limits assumed): as the sequence (P20138 18-364 limits assumed) above, with V22A counted along it
human CD33 V31A, sequence (P20138 18-364 V31A limits assumed): as the sequence (P20138 18-364 limits assumed) above, with V14A counted along it
human CD33 W22A, sequence (P20138 18-364 W22A limits assumed): as the sequence (P20138 18-364 limits assumed) above, with W5A counted along it
human CD33 E33A, sequence (P20138 18-364 E33A limits assumed): as the sequence (P20138 18-364 limits assumed) above, with E16A counted along it
human CD33 L23A, sequence (P20138 18-364 L23A limits assumed): as the sequence (P20138 18-364 limits assumed) above, with L6A counted along it
human CD33 Q32A, sequence (P20138 18-364 Q32A limits assumed): as the sequence (P20138 18-364 limits assumed) above, with Q15A counted along it

Mean % WT Binding [1]: 139 % of WT
Mean % WT Binding [2]: 87.8 % of WT
Mean % WT Binding [3]: 137 % of WT
Mean % WT Binding [4]: 122 % of WT
Mean % WT Binding [5]: 115 % of WT
Mean % WT Binding [6]: 101 % of WT
Mean % WT Binding [7]: 148 % of WT
Mean % WT Binding [8]: 114 % of WT
Mean % WT Binding [9]: 114 % of WT
Mean % WT Binding [10]: 30.9 % of WT
Mean % WT Binding [11]: 116 % of WT
Mean % WT Binding [12]: 58.4 % of WT
Mean % WT Binding [13]: 186 % of WT
Mean % WT Binding [14]: 112 % of WT
Mean % WT Binding [15]: 118 % of WT
Mean % WT Binding [16]: 105 % of WT
Mean % WT Binding [17]: 118 % of WT
Mean % WT Binding [18]: 117 % of WT
Mean % WT Binding [19]: 104 % of WT
Mean % WT Binding [20]: 180 % of WT
Mean % WT Binding [21]: 148 % of WT
Mean % WT Binding [22]: 122 % of WT
Mean % WT Binding [23]: 143 % of WT
Mean % WT Binding [24]: 106 % of WT
Mean % WT Binding [25]: 112 % of WT
Mean % WT Binding [26]: 94.4 % of WT
Mean % WT Binding [27]: 115 % of WT
Mean % WT Binding [28]: 197 % of WT
B1: Refmab #5 (antibody, V domains shown)
VH: QVQLVQSGAEVKKPGASVKVSCKASGYTFTNYDINWVRQAPGQGLEWIGWIYPGDGSTKYNEKFKAKATLTADTSTSTAYMELRSLRSDDTAVYYCASGYEDAMDYWGQGTTVTVSS
VL: DIQMTQSPSSLSASVGDRVTINCKASQDINSYLSWFQQKPGKAPKTLIYRANRLVDGVPSRFSGSGSGQDYTLTISSLQPEDFATYYCLQYDEFPLTFGGGTKVEIK
notes: The alanine scan used IgG or Fab

Signal:Background [29]: 37 signal:background ratio
B2: Refmab #5 (antibody, human IgG1, V domains shown)
VH: B1 VH
VL: B1 VL
notes: Full-length MAb format, human IgG1 Fc silent (PG-LALA)

Signal:Background [30]: 57 signal:background ratio
B3: Refmab #6 (antibody, human IgG1, V domains shown)
VH: QVQLQQPGAEVVKPGASVKMSCKASGYTFTSYYIHWIKQTPGQGLEWVGVIYPGNDDISYNQKFQGKATLTADKSSTTAYMQLSSLTSEDSAVYYCAREVRLRYFDVWGQGTTVTVSS
VL: EIVLTQSPGSLAVSPGERVTMSCKSSQSVFFSSSQKNYLAWYQQIPGQSPRLLIYWASTRESGVPDRFTGSGSGTDFTLTISSVQPEDLAIYYCHQYLSSRTFGQGTKLEIK
notes: as for B2

Signal:Background [31]: 51 signal:background ratio
B4: Refmab #6 Fab fragment (Fab, V domains shown)
VH: B3 VH
VL: B3 VL

Signal:Background [32]: 33 signal:background ratio
B5: Refmab #1 Fab fragment (Fab, V domains shown)
VH: EVQLVQSGAEVKKPGSSVKVSCKASGYTITDSNIHWVRQAPGQSLEWIGYIYPYNGGTDYNQKFKNRATLTVDNPTNTAYMELSSLRSEDTAFYYCVNGNPWLAYWGQGTLVTVSS
VL: DIQLTQSPSTLSASVGDRVTITCRASESLDNYGIRFLTWFQQKPGKAPKLLMYAASNQGSGVPSRFSGSGSGTEFTLTISSLQPDDFATYYCQQTKEVPWSFGQGTKVEVK
